B1: αE-catenin α(CA) (M319G/R326E/R551E), as chain of the supra-complex (natural protein, mouse, UniProt P26231 1-906, looked up)
chain: MTAVHAGNINFKWDPKSLEIRTLAVERLLEPLVTQVTTLVNTNSKGPSNKKRGRSKKAHVLAASVEQATENFLEKGDKIAKESQFLKEELVVAVEDVRKQGDLMKSAAGEFADDPCSSVKRGNMVRAARALLSAVTRLLILADMADVYKLLVQLKVVEDGILKLRNAGNEQDLGIQYKALKPEVDKLNIMAAKRQQELKDVGNRDQMAAARGILQKNVPILYTASQACLQHPDVAAYKANRDLIYKQLQQAVTGISNAAQATASDDAAQHQGGSGGELAYALNNFDKQIIVDPLSFSEERFRPSLEERLESIISGAALGADSSCTEDDRRERIVAECNAVRQALQDLLSEYMGNAGRKERSDALNSAIDKMTKKTRDLRRQLRKAVMDHVSDSFLETNVPLLVLIEAAKNGNEKEVKEYAQVFREHANKLIEVANLACSISNNEEGVKLVRMSASQLEALCPQVINAALALAAKPQSKLAQENMDLFKEQWEKQVRVLTDAVDDITSIDDFLAVSENHILEDVNKCVIALQEKDVDGLDRTAGAIRGRAAEVIHVVTSEMDNYEPGVYTEKVLEATKLLSNTVMPRFTEQVEAAVEALSSDPAQPMDENEFIDASRLVYDGIRDIRKAVLMIRTPEELDDSDFETEDFDVRSRTSVQTEDDQLIAGQSARAIMAQLPQEQKAKIAEQVASFQEEKSKLDAEVSKWDDSGNDIIVLAKQMCMIMMEMTDFTRGKGPLKNTSDVISAAKKIAEAGSRMDKLGRTIADHCPDSACKQDLLAYLQRIALYCHQLNICSKVKAEVQNLGGELVVSGVDSAMSLIQAAKNLMNAVVQTVKASYVASTKYQKSQGMASLNLPAVSWKMKAPEKKPLVKREKQDETQTKIKRASQKKHVNPVQALSEFKAMDSI
notes: αE-catenin, mouse, untagged; residues 690–903 are modelled in the structure; used for the pairs that touch in the cryo-EM structure; also called αE-catenin ABD; ABD1; source: FreeStyle 293-F, co-expressed and purified within the tetramer Eβα(CA)-vinculin(T12-IV)
B2: afadin-CC (afadin coiled-coil region, residues 1393–1602), purified (domain or fragment, mouse, UniProt Q9QZQ1-3 1393-1602, looked up)
chain: ANQAGPQSAQVAAAEWKKREEHQRWYEKEKARLEEERERKRREQERKLGQMRSQTLNPASFSPLATQAKPEKPSTLQRPQETVIRELQPQQQPRTIERKDLQYITISKEELSSGDSLSPDPWKRDAREKLEKQQQMHIVDMLSKEIHELQNKVDRTAEESDRLRKLMLEWQFQKRLQESKQKDEDDDEEEDDDVDTMLIMQRLEAERRAR
notes: afadin coiled-coil region (afadin-CC), mouse; residues 1508–1578 are modelled in the structure; source: FreeStyle 293-F, transfected, purified (anti-GFP beads, TEV, MonoQ, SEC); not shown: GFP, N-terminal, cleaved

Legend:
[1] = molecular target: F-actin (chicken skeletal muscle actin) (UniProt P68139); test: F-actin co-sedimentation assay; conditions: +CC (black bar; with mutant afadin-CC); mean ± SD of three independent experiments; parent: est. 0.89; read off a plot
[2] = molecular target: the molecule itself; test: cryo-EM structure; 2.5 μM tetramer Eβα(CA)-Vinculin(T12-IV) premixed with 5 μM afadin-CC, added to 0.6 μM F-actin on the grid; maps at 3.1 Å (straight, both strands decorated) and 4.1 Å (curved, one strand decorated)
[3] = molecular target: B1; test: as above; conditions: both partners purified

| response [1] | Molecule | other results |
| --- | --- | --- |
| 0.35 | Eβα(CA)–vinculin(T12-IV)–afadin-CC pentamer (from UniProt Q02248;P26231;P18206-2;Q9QZQ1-3) afadin-CC:F1564A |  |
| 0.3 | Eβα(CA)–vinculin(T12-IV)–afadin-CC pentamer (from UniProt Q02248;P26231;P18206-2;Q9QZQ1-3) afadin-CC:W1514A; afadin-CC:R1516A; afadin-CC:D1517A; afadin-CC:F1564A |  |
|  | B1 | binding result [2]: binds |
|  | B2 | binding result [3]: binds |

Source: doi:10.1101/2024.10.08.617332 (bioRxiv, 2024)
